Assay results from the NTF2 design screens of Basanta et al. (2020).

Test: protease stability score; higher = more stable; yeast display proteolysis, trypsin and chymotrypsin;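 note: relative to predicted unfolded state with 0 unfolded-like and 1 meaning tenfold more protease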

Sequence | protease stability score
DEEEKEIRHQAEHWFHIILTGDEDTLRNLADPNVRSVWVIGDYERHEHGMDEHNKILKEWRFEEYRRDSIHAINGRVHLDIRSVMTINGKRMSFRIHIDIHVVNGVRKSITIRIE | 0.702
DEEEKEMKEALHEQKRSHETGDERVLEELIDPNVRLDINGREHHGREEAIRLWHELGIDHFDIRDFRVVNGRAHIDGHMVINGQRVDVTLIVHKINGRWRQHHIVVR | 0.04
DEEEKEMKEIMHMLDHWLRTGDEETLNHYLDPNVRLIIFIDGRNLTSIGREESRELWRYVVEEWRIHDMHVTEVRSQGDKAESNTRLKGHVNGVERTLIQHIEVDVVDGRIKRIIIRVH | 2.1
DEEEKEMRELFHHIIRLIDTGDFDTLKQLADPNTQLHIGDKHSHGREEVVRMNRHWRYHDSKIRDSHVVNGVIHVDAESNLKFDGVRTVTHVRLILYVVDGRLKSLEIRIE | 0.44
DEEEKESEEAFRIHKEVLETGDEHLIERMLDPNTRIIIGDKNIHGRESALETMIKLGVKHVHIRRWNDFNGRAENDVQMRFNGRTHEVHLFALKFNGRWLMHEIEFR | 1.25
DEEEKESRLALEEFLTMMKTGDEDRFTELADPHARSHYNGREHHGREVFLDWFRRVKGLKVDLQHVKTFNGRIIIHVRFHYDGVTYYVEIFVEKFDGRWYLTRVHHI | 0.421
DEEEKEVHKFMDLLVRALETGDEDEFLSLVDPNARVEIGDKLLHGRESEHWLTEHIKKVAGVERFTHHIHLKDWTIFNGRVRVDGILHLDYGNFHVERRSDFIIYKVDGRWIMRSERVH | 0.185
DEEEKFSREVMELHIELWETGDEDTLTRLADPHAKFVLEWNGRNHTNHGMDVLIHMLHRLLKELGIKHTELRRKDVIGDKNHIHRRVIVNGVPTDLDLELVIIDGKLREYRIHIRIR | 1.56
DEEEKHARKVFRELEESLRTGDEHSMRRLLDPHTKIIINGQEHVGMEHADKFVHELRLKDSKIRHLEMHVIDGQAHLKMDVDVEGNFNGRDTRDRVTEIWIVDKINGRWLVSEVRFVKR | 1.13
DEEEKHDTFMTEIFKEIYQTGDEDALATMADPDTRLIIRIGDYTEENHGWKFFIEKLMRLIRKVKNLRYIETRDHVFDGQSHIHGILIINGRKREVEIIIYIFDGRIKSIEIRIV | 1.79
DEEEKHHHELFKEWSRSLITGDFTTMERMIDPNARFEINGVEFHGMDTLRKFTEHLGWEIEHVHDHRIEVYDGVDHVDTKIRGRIDGRRTETRARIILFIYDGRIKSIHEETK | 0.631
DEEEKHIRKMAEDLKRAFATGDWELLLEMFDPDVRINIIVNGRIIEEHGMENHVRKHVELGITVRLKDEHVESQGNWAHHEGRLEVNVNGKEKSFDVHINLLIVNGRLKESHLKIE | 2.07
DEEEKHLKKLKDMEWKLFETGNEDEIAKLADPNTRTEIDFNGVRIILHGRHVFAKYLTRWWRSLGIDHIRLEEMDIQGDYVTIRGKEDYNGKEKRVTIIIVIVDGRLKEIHVDVR | 0.967
DEEEKHLRDMMEIVIKLFMTGDWDAFHEMADPDVKFQVDVGDKHIHRHGREEVVEELIRLLEHWRVRNIRIHDIKLIGDKLVVEGRWETSYGDKSHDEDVELIVIVVDGKIKKVRIIIR | 2.72
DEEEKHSEDIADLMLRWWLTGDFELLAKYADPRVRLDINGREFHGREEYEEVMKDLIRRFKNVKIEIRDYEIQGEKVHVDTRLHINGKTHTVHLTFVVIDGVIKSESIRVR | 1.27
DEEEKHVRKMVEIESHSHQTGDFDSIRELADPHMRIDINGVELHGWKEFERFLREIRVHHIKIKSVRDINGVAVVDTIVHGHIDGRTDTFDAHVVILKINGQWRIKSIKIE | 0.918
DEEEKHWTTLIEIHFKDLLTGDEDSNLHLADPDYRLRMHFDGRELIFIGREEIHKFWHETVHKFKNMRIEINDSDIQGDKFDVDIAIRIDGVEIRYRLIIILFNGRTHRQEVHNI | 1.3
DEEEKIAEEMFRRWVELRETGNEDDRRRLADPHTRMVINGVEYHGRDQFTKFLEHVRREWRYEDNKERDVKFQGDKIEINGREVSHFDGKTVTTDVRIEIVVVNGRLKRFNIHVH | 1.38
DEEEKIARELSRLLAEIIETGDEDILLRMVDPHARFIINGKTIIGRETMWELWRRHVEKLGVSRIISRLRRIHVIDGRVHVHIEETFNGRTQEVRVDYMKIDGVWLIHEISIE | 1.35
DEEEKIIEHVLRLLAEALSTGDEDTLDKLVDPNARVMIDGVDIHGMESMTEWLKHLRIERVHVELRDYREFNGKIHVDGVLHVDRRIGDKREHVSSKTTFIFTKVDGRWKVESIKIK | 2.42
DEEEKILEEFLEIWIEAVATGDEEVLEHLMDPNTRVHILVGDKTLDVHGMEFFKRHIKILGADHIEWRIRHKEVINGRIHTRGELILRQGDKERRIDVEIILVVVNGRLKNSEVRER | 1.43
DEEEKILHDALEELKREFETGDEELWQRLADPHTRVEVGDKEYHGREEFVKMMSDFVRHLRWEELRIRSVHAQGEKVITHIELEMNIDGRREIHNVTIIMRKINGRWHIEFMHKR | 0.926
DEEEKILLHLLNVILHLLKTGDEEMMTELMDPNMKIDNENHKSHGWEALKFVRDQIRIHSINIREQRVQGEFAILRVDVDVEWNGRRIRTEIELHFVFVNGRVKEVHIQVK | 1.02
DEEEKIMYHIFEVLIKLFLTGDFDTFTKMLDPNVYWNINGQENHGRDKVREALKLWIERFKNRTFDIKITDMRVQGEKTTLHTRLHVEVDGRHLEHDTVIILIVVDGRIKTIVIHIH | 2.51
DEEEKISKEATDNFIREFETGNEEDLMKNMDPNARLIQGDKHNHGRDEASRFLVELLRDLGFKHIRLTHVRIIDGRVWVHSDLHFNGVEFKQDVIFTKINGKWTLKSLTIK | 1.13

Sequence | protease stability score
DEEEKIVEDAIRVWRRVLMTGDEEASRDLMDPNYKLVVGDKEYHGREEIVTYFKILVEHIRIDDFDVRHIRVQGDKIDINSEINGTIDGRHKRLEVTIHAHKFDGRWHLTEIIIH | 0.811
DEEEKKAQEFLEFVMSALETGDEETLKRLMDPRVRLRFDGRDIHGREEVLRVWIEVLKRADHVRVEIRDMEFQGDKLHIHFELILHIGDKENHIEIRQNVFKVDGQWIIKEHEIR | 2.22
DEEEKKFHELYKHLVKSLITGDEHELYRLADPNMRFSVGEFHYHGRENVLERLKEFIDRFRHATIRTKHMDRQGEYIHLTLKIHQGDKTHDMEIIAWKFDGRWFLHMIYIE | 0.959
DEEEKKWKDMVHLWFHWHVTGDFEALYENFDPNARLEQTIDGKRIEVHGREVVKEFFHRLMEELGVDHIRIERRQIQGEKVHIRGTSIFNGKERDVHIDLVVIDGRFRSARIIFN | 1.39
DEEEKLARHWMEVWHHAEHTGDFEEFNRLLDPHTRIEINFDGQRVELHGRHEYERFFRELGMEIRRIRLRDLHVVDGKWHIDGERDGEYDGKRIDSQIIIIYRVIDGRVKEIRKDDR | 0.816
DEEEKLARKIVEDWVRAMTTGDEDDLRRLADPNVRHDINGVELHGMDEWLRVLLERGYEIRIQFRHIRVYDGRVEIDIDLEIRIGDKHHHHHVHLIFEKIDGRWRMKSEKTD | 1.9
DEEEKLATIVMELIEETWETGDEDLFEQLADPNVRVEIGDKVYIGREIALEWFVREIRKRGAELKHTTTHNLDVQGDKVNNDMKVNGNINGRVVIFTTHLDVRKINGKWFLRSISFK | 1.29
DEEEKLDREIEKTMKETIETGDEHLLSELIDPHARLVFNGKDFHGMEEATRFWYELVTRFKNLTFVPKDVKVFDGRLIMHGINLVNGVERRLTIVVEKINGRWVIRSIHIK | 1
DEEEKLEEDLARFWVTLLKTGDEEVIRHLADPHVREDWDGVHIHGREHVAKYLSQIKNVTWEIKEVRIYNGRTEIDARHHVNGRDEHVRIHIEVFNGKVRRLRFEKR | 1.5
DEEEKLFHDFASHFVRNFLTGNWDMIKRNADPTVQAHIGDKEIHGWDRIVDHLEERLRKIKGMRHHPRRLVFIGEKTYLDTELHFNGVHVETILIVIVVNGRLKSVEFHIE | 0.695
DEEEKLIRIFDKLLSRAMKTGDEHELFKLIDPHTRMVVNGRTFIGWELFSHVVRHWRIDHIDLEDFKVQGDYAHLDGRVDQTVNGVKIETRSIIINEKFNGRWNNSSVILH | 0.163
DEEEKLLEFLVEHIATILVTGDEDRWLTLADPDVKVIIDGRTFIGWEFLEELIHQIRIHRMRIRHFSFVNGRLVFIFSIDGTIGDKRDEHDTRYEMIKIDGRWRLKRVEIR | 1.48
DEEEKLLEKMFKDLIRDLLTGDEESFHKLADPNMRLNQGDFQIHGWEDVQRVLRWRMHEMRIHHLHIHHLHFFDGKLHIDGESDIEFNGVRQNRRVEILIKKVDGKWELKEVIIR | 2.28
DEEEKLLEQLARLILHNLLTGDWKSHMNNADPDVKVTVNGVLVHGREDMSHLYRELLERIPNIQIRVDRVDIQGDKVHARLWVEFDGKERQSELHVRIVNGRIKEETYHEK | 0.937
DEEEKLMKHRWEEWVRFLKTGDFDEIHDYMDPNVRLFIGDKTFHGRDVFARLVYRMGAKHVEFDLHDEHLINGKLIFHGRVVHTQGDKFIEFEVEIIAEKVNGKWLNRHQIFR | 0.456
DEEEKLRQWIFHLWIKILETGDEKLLEELADPHVLHRFDGVHAHGRERMSSWLRELIERLGVKVHELNSIHIYGDKARINFQVHVDGQRKEMTIHMLMVDGKIKSTQLDRREH | 1.09
DEEEKLSQHMLKEWFEWTITGDEDTLAKMADPNVRVHIGDYHLHGRESMLKWLHDFIRDLGVERIDFHLRDRTVQGNKARLHVVENVNGKSTETEVIIDVIDGRMKLVEIRIR | 0.198
DEEEKLVEEALREFLRDLMTGDEDSLLRQIDPNARHVYNGQEFHGRKWFEEMHKRMGMELKRIEIKDSDIVNGRAISHVEVHSRIGDKRLRIETEIVTLKVNGQWLVKSLSLI | 1.15
DEEEKLVRYLRELMKKAWLTGDEDYIRKLMDPDTWFIYGDKHWHGMEEVTKAFEYLLHHLRIEHSIDRHVSIIGNKVHIDGEVDVTIGEKRDRRRQEIILIIVDGRIKTIEFHER | 0.942
DEEEKLWHEVARLEFELIHTGNEETWNKLADPHTRTDINGKKLHGREDFAKWSLEFLRKVKGMTMELRSTHIQGNKIRLIIRLIVDGREVKLDLEIVIINGKLREVKMEVEDT | 2.56
DEEEKMDELLIKIWLKVNETGDEDTFSKLLDPDAKVIVGDKVLHGREEIEELMRQLRVDRIHVRRHKAVNGQIHQDWELRGTVNGREIRTETRVHTIKVNGQWVIHRLKIE | 1.49
DEEEKMHTKAVELTETILKTGDERIIKEMADPNTRVIFDGVDLHGMEHWTEFWRRLGFKHIEIRTTEVVDGRVIIIQHVRYNGKKHESHVYADKIDGRWLYTHVEIR | 0.618
DEEEKRAHEIVRRFLKWFLTGDEEASRKNMDPSVIMVINIGDKRIELHGMEQVSEFWHETVRRYDHIDIKLKDIEVQGDKAVTHGHLELRVGDKRFETDVQIILIYIDGRISFMSVNIV | 2.48
DEEEKRAREQYKLMFHNLQTGDEDTLKKLMDPNVRLDINGQEHHGRENVVKFWEHFIRKLGVKHMEWKDRDVEITENHVNFHGYIIIDIDGQERRLHTIIILRKVDGKWVVESLVFK | 2.23
DEEEKRERKMAEIWMKSLLTGDEDTLSRLADPNVRNVLIIDGRELNLHGRELMHESLRHLRIEHIRIDEYSIVNGVFHANTTVHGVVGDKRTTVETRIHLWIFDGKFHTIIIIIS | 1.03
